Molecular target: T1, SARS-CoV S1 subunit (SARS-CoV WH20 (AAX16192.1), UniProt Q5DIC5)
T1 construct: source: bought: Sino Biological
Experiment: western blotting
Conditions: one partner purified

B1: mAb 12C10 (antibody, V domains shown)
VH: EVKLQESGGGLVKPGGSLKLSCAASGFTFSNYSMSWVRQTPEKRLEWVATISNGGGYIYYLDSVKGRFTISRDNAKNTLYLQMSSLRSEDTAMYYCGRPRPEKEFISTSTAMDHWGQGTTVT
VL: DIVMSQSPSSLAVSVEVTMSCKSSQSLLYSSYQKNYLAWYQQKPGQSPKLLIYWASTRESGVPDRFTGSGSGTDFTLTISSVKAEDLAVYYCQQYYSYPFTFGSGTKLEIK
notes: also called anti-R405; source: mouse hybridoma; supernatants or ascites fluid
**Q.** Does B1 bind?
**A.** Result: binds
